Here are results for two substances from PMC5792643.

Assay [1] has as its target G-actin (monomeric actin) (chicken) (UniProt P68139). In words: ITC. A general note: ITC needs no label: the signal is the heat of the interaction.
Assay [2] concerns the target G-actin (monomeric actin from chicken muscle) (chicken) (UniProt P68139). In words: ITC.

pKd: −log10 of the molar value.

Regarding “Tarp_(726–825) (translocated actin recruiting phosphoprotein, residues 726–825, containing the G-actin binding domain) (from UniProt Q6GX35 726-825) (domain or fragment)”, in assay [1], the pKd – broadly, the Kd on a negative log10 scale, so that one unit is a factor of ten – is 6.99 and the stoichiometry N (usually a count of units in the complex or per binding partner) stood at 1.

In turn, “Tarp_(726–825) (translocated actin recruiting phosphoprotein, G-actin binding region) (domain or fragment)” came in with a stoichiometry N in assay [2] of 1.
